Assay results as given in publication PMC3182218, “Obesity Risk Gene TMEM18 Encodes a Sequence-Specific DNA-Binding Protein”.

Biological target: TMEM18 (UniProt Q96B42 1-140)
Test: EMSA; 400 nM probe; EMSA: 10 mM Tris pH 7.4, 50 mM KCl, 1 mM DTT, 0.05% DDM, 30 min, RT; 4-20% TBE gel in 0.5x TBE
Settings: protein: recombinant, tags: N-terminal Flag-His8, blunt

TMEM18, sequence (Q96B42 whole entry): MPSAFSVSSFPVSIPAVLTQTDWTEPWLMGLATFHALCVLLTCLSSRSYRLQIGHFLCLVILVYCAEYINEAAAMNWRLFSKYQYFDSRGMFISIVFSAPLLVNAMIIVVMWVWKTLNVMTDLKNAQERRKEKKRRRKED

Row | Binder | binding result (label: 5' biotin on (GTG)8 strand) | binding result (label: 5' biotin on (GCT)8 strand)
1 | biotin-(GTG)8 (dsDNA) DNA 1: GTGGTGGTGGTGGTGGTGGTGGTG DNA 2: CACCACCACCACCACCACCACCAC | no binding | 
2 | biotin-(GCT)8 (dsDNA) DNA 1: GCTGCTGCTGCTGCTGCTGCTGCT DNA 2: AGCAGCAGCAGCAGCAGCAGCAGC |  | binds
